# Results as given in patent publication US20160264649A1.
# Assays:
# Test in all cases: cell-based or functional assay
# [1] = biological target: HIV-1 Env of isolate 92 BR 020 (subtype B) (HIV-1)
# [2] = biological target: HIV-1 Env of isolate MG RM-C-022 (subtype C) (HIV-1)
# [3] = biological target: HIV-1 Env of isolate MGRM-Chronic-B-020 (subtype B) (HIV-1)
# [4] = biological target: HIV-1 Env of isolate APV_13 (subtype B) (HIV-1)
# [5] = biological target: HIV-1 Env of isolate 93MW959 (subtype C) (HIV-1)
# [6] = biological target: HIV-1 Env of isolate 97ZA012 (subtype C) (HIV-1)
# [7] = biological target: HIV-1 Env of isolate 98IN022 (subtype C) (HIV-1)
# [8] = biological target: HIV-1 Env of isolate MG RM-C-023 (subtype C) (HIV-1)
# [9] = biological target: HIV-1 Env of isolate MG RM-C-019 (subtype C) (HIV-1)
# [10] = biological target: HIV-1 Env of isolate SC422661.8 (subtype B) (HIV-1)
# [11] = biological target: HIV-1 Env of isolate APV_17 (subtype B) (HIV-1)
# [12] = biological target: HIV-1 Env of isolate MGRM-Chronic-B-011 (subtype B) (HIV-1)
# [13] = biological target: HIV-1 Env of isolate MGRM-Chronic-B-018 (subtype B) (HIV-1)
# [14] = biological target: HIV-1 Env of isolate MGRM-Chronic-B-001 (subtype B) (HIV-1)
# [15] = biological target: HIV-1 Env of isolate MG RM-C-028 (subtype C) (HIV-1)
# [16] = biological target: HIV-1 Env of isolate MG RM-C-020 (subtype C) (HIV-1)
# [17] = biological target: HIV-1 Env of isolate PVO.4 (subtype B) (HIV-1)
# [18] = biological target: HIV-1 Env of isolate JRFL (subtype B) (HIV-1)
# [19] = biological target: HIV-1 Env of isolate 6535.3 (subtype B) (HIV-1)
# [20] = biological target: HIV-1 Env of isolate NL43 (subtype B) (HIV-1)
# [21] = biological target: HIV-1 Env of isolate CAAN.A2 (subtype B) (HIV-1)
# [22] = biological target: HIV-1 Env of isolate MG RM-C-027 (subtype C) (HIV-1)
# [23] = biological target: HIV-1 Env of isolate SF162 (subtype B) (HIV-1) (UniProt P19550)
# [24] = biological target: HIV-1 Env of isolate MG RM-C-025 (subtype C) (HIV-1)
# [25] = biological target: HIV-1 Env of isolate MGRM-Chronic-B-023 (subtype B) (HIV-1)
# [26] = biological target: HIV-1 Env of isolate 93TH305 (subtype B) (HIV-1)
# [27] = biological target: HIV-1 Env of isolate MGRM-Chronic-B-008 (subtype B) (HIV-1)
# [28] = biological target: HIV-1 Env of isolate JRCSF (subtype B) (HIV-1) (UniProt P20871)
# [29] = biological target: HIV-1 Env of isolate MGRM-Chronic-B-024 (subtype B) (HIV-1)
# [30] = biological target: HIV-1 Env of isolate MGRM-Chronic-B-017 (subtype B) (HIV-1)
# [31] = biological target: HIV-1 Env of isolate APV_6 (subtype B) (HIV-1)
# [32] = biological target: HIV-1 Env of isolate VLGCB3 (subtype B) (HIV-1)
# [33] = biological target: HIV-1 Env of isolate TRO.11 (subtype B) (HIV-1)
# [34] = biological target: HIV-1 Env of isolate THR0.18 (subtype B) (HIV-1)
# [35] = biological target: HIV-1 Env of isolate MGRM-Chronic-B-010 (subtype B) (HIV-1)
# [36] = biological target: HIV-1 Env of isolate QH0692.42 (subtype B) (HIV-1)
# [37] = biological target: HIV-1 Env of isolate MGRM-Chronic-B-012 (subtype B) (HIV-1)
# [38] = biological target: HIV-1 92RW008 Env (HIV-1)
# [39] = biological target: HIV-1 Env of isolate MGRM-Chronic-B-003 (subtype B) (HIV-1)
# [40] = biological target: HIV-1 Env of isolate MG RM-C-024 (subtype C) (HIV-1)
# [41] = biological target: HIV-1 Env of isolate TRJ04551.58 (subtype B) (HIV-1)
# [42] = biological target: HIV-1 Env of isolate 93IN905 (subtype C) (HIV-1)
# [43] = biological target: HIV-1 Env of isolate MGRM-Chronic-B-002 (subtype B) (HIV-1)
# [44] = biological target: HIV-1 Env of isolate MGRM-Chronic-B-004 (subtype B) (HIV-1)
# [45] = biological target: HIV-1 Env of isolate MG RM-C-026 (subtype C) (HIV-1)
# 4995_P16 (PGT-145) (antibody), sequence (VH): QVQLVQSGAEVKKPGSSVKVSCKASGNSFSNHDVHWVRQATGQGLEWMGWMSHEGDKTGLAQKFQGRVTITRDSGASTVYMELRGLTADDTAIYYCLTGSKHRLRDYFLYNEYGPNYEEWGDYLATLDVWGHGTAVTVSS
# 4995_P16 (PGT-145) (antibody), sequence (VL): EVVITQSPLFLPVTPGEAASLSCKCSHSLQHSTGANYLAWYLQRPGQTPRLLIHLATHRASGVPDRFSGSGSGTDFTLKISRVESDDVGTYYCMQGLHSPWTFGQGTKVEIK
# 4970_K22 (PGT-144) (antibody), sequence (VH): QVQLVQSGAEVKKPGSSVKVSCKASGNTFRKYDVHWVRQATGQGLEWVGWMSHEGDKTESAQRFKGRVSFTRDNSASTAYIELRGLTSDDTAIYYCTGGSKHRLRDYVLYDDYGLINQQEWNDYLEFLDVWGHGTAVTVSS
# 4970_K22 (PGT-144) (antibody), sequence (VL): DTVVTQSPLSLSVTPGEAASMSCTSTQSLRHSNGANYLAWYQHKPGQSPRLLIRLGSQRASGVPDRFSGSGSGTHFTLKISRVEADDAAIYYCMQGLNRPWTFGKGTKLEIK
# 4980_N08 (PGT-143) (antibody), sequence (VH): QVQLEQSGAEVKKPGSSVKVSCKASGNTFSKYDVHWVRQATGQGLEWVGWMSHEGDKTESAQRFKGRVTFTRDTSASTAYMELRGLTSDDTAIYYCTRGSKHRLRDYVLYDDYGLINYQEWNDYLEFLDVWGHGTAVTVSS
# 4980_N08 (PGT-143) (antibody), sequence (VL): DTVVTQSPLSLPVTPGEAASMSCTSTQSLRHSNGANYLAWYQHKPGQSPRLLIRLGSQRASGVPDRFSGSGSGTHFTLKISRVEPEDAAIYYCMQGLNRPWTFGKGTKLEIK
substance,measurement,setting,value
4995_P16 (PGT-145) (antibody),IC50,[1],1.05 µg/mL
same,IC50,[2],0.492 µg/mL
same,IC50,[3],> 50 µg/mL
same,IC50,[4],0.337 µg/mL
same,IC50,[5],1.2 µg/mL
same,IC50,[6],0.915 µg/mL
same,IC50,[7],0.005 µg/mL
same,IC50,[8],0.201 µg/mL
same,IC50,[9],0.005 µg/mL
same,IC50,[10],0.079 µg/mL
same,IC50,[11],0.488 µg/mL
same,IC50,[12],0.206 µg/mL
same,IC50,[13],0.013 µg/mL
same,IC50,[14],3.22 µg/mL
same,IC50,[15],0.099 µg/mL
same,IC50,[16],0.712 µg/mL
same,IC50,[17],0.299 µg/mL
same,IC50,[18],30.4 µg/mL
same,IC50,[19],> 50 µg/mL
same,IC50,[20],0.006 µg/mL
same,IC50,[21],7.08 µg/mL
same,IC50,[22],0.095 µg/mL
same,IC50,[23],> 50 µg/mL
same,IC50,[24],0.044 µg/mL
same,IC50,[25],0.009 µg/mL
same,IC50,[26],0.032 µg/mL
same,IC50,[27],1.9 µg/mL
same,IC50,[28],0.002 µg/mL
same,IC50,[29],0.018 µg/mL
same,IC50,[30],0.054 µg/mL
same,IC50,[31],0.104 µg/mL
same,IC50,[32],> 50 µg/mL
same,IC50,[33],0.044 µg/mL
same,IC50,[34],0.013 µg/mL
same,IC50,[35],> 50 µg/mL
same,IC50,[36],> 50 µg/mL
same,IC50,[37],9.06 µg/mL
same,IC50,[38],0.4 µg/mL
same,IC50,[39],0.045 µg/mL
same,IC50,[40],0.174 µg/mL
same,IC50,[41],> 50 µg/mL
same,IC50,[42],0.002 µg/mL
same,IC50,[43],3.67 µg/mL
same,IC50,[44],0.023 µg/mL
same,IC50,[45],> 50 µg/mL
4970_K22 (PGT-144) (antibody),IC50,[1],44 µg/mL
same,IC50,[2],2.58 µg/mL
same,IC50,[3],> 50 µg/mL
same,IC50,[4],> 50 µg/mL
same,IC50,[5],0.332 µg/mL
same,IC50,[6],> 50 µg/mL
same,IC50,[7],0.171 µg/mL
same,IC50,[8],0.38 µg/mL
same,IC50,[9],0.513 µg/mL
same,IC50,[10],> 50 µg/mL
same,IC50,[11],10.3 µg/mL
same,IC50,[12],5.64 µg/mL
same,IC50,[13],2.4 µg/mL
same,IC50,[14],> 50 µg/mL
same,IC50,[15],> 50 µg/mL
same,IC50,[16],1.29 µg/mL
same,IC50,[17],0.535 µg/mL
same,IC50,[18],> 50 µg/mL
same,IC50,[19],> 50 µg/mL
same,IC50,[20],> 50 µg/mL
same,IC50,[21],> 50 µg/mL
same,IC50,[22],> 50 µg/mL
same,IC50,[23],> 50 µg/mL
same,IC50,[24],17.6 µg/mL
same,IC50,[25],> 50 µg/mL
same,IC50,[26],> 50 µg/mL
same,IC50,[27],> 50 µg/mL
same,IC50,[28],0.149 µg/mL
same,IC50,[29],0.04 µg/mL
same,IC50,[30],0.712 µg/mL
same,IC50,[31],> 50 µg/mL
same,IC50,[32],> 50 µg/mL
same,IC50,[33],4.73 µg/mL
same,IC50,[34],0.029 µg/mL
same,IC50,[35],> 50 µg/mL
same,IC50,[36],> 50 µg/mL
same,IC50,[37],> 50 µg/mL
same,IC50,[38],> 50 µg/mL
same,IC50,[39],7.41 µg/mL
same,IC50,[40],2.06 µg/mL
same,IC50,[41],> 50 µg/mL
same,IC50,[42],0.132 µg/mL
same,IC50,[43],> 50 µg/mL
same,IC50,[44],9.41 µg/mL
same,IC50,[45],> 50 µg/mL
4980_N08 (PGT-143) (antibody),IC50,[1],25.9 µg/mL
same,IC50,[2],0.103 µg/mL
same,IC50,[3],> 50 µg/mL
same,IC50,[4],> 50 µg/mL
same,IC50,[5],0.002 µg/mL
same,IC50,[6],> 50 µg/mL
same,IC50,[7],0.001 µg/mL
same,IC50,[8],0.148 µg/mL
same,IC50,[9],0.004 µg/mL
same,IC50,[10],2.02 µg/mL
same,IC50,[11],1.11 µg/mL
same,IC50,[12],1.56 µg/mL
same,IC50,[13],0.377 µg/mL
same,IC50,[14],> 50 µg/mL
same,IC50,[15],12.4 µg/mL
same,IC50,[16],0.797 µg/mL
same,IC50,[17],0.162 µg/mL
same,IC50,[18],> 50 µg/mL
same,IC50,[19],> 50 µg/mL
same,IC50,[20],> 50 µg/mL
same,IC50,[21],> 50 µg/mL
same,IC50,[22],0.598 µg/mL
same,IC50,[23],> 50 µg/mL
same,IC50,[24],0.336 µg/mL
same,IC50,[25],0.236 µg/mL
same,IC50,[26],17.3 µg/mL
same,IC50,[27],> 50 µg/mL
same,IC50,[28],0.007 µg/mL
same,IC50,[29],0.01 µg/mL
same,IC50,[30],0.145 µg/mL
same,IC50,[31],14 µg/mL
same,IC50,[32],> 50 µg/mL
same,IC50,[33],0.219 µg/mL
same,IC50,[34],0.016 µg/mL
same,IC50,[35],> 50 µg/mL
same,IC50,[36],> 50 µg/mL
same,IC50,[37],> 50 µg/mL
same,IC50,[38],0.385 µg/mL
same,IC50,[39],0.854 µg/mL
same,IC50,[40],0.05 µg/mL
same,IC50,[41],> 50 µg/mL
same,IC50,[42],0.002 µg/mL
same,IC50,[43],> 50 µg/mL
same,IC50,[44],0.395 µg/mL
same,IC50,[45],> 50 µg/mL
